Values of other authors as cited in publication PMC2582146 (Biochemistry, 2008).

Molecular target: N1P1 domain
Conditions: read-out: affinity

Kd: 298 nM
B1: C-terminal 70 residues of CFTR: C-terminal 70 residues of CFTR, literature construct (ref 41) (protein, UniProt P13569 1411-1480, looked up, fragment)
chain: QQFLVIEENKVRQYDSIQKLLNERSLFRQAISPSDRVKLFPHRNSSKCKSKPQIAALKEETEEEVQDTRL
